According to paper PMC5253651, “Human farnesyl pyrophosphate synthase is allosterically inhibited by its own product” (Nature Communications, 2017):

Substrate: C=C(C)CCO[P@@](=O)(O)OP(=O)(O)O
Experiment: purified protein, by the assay type
Details: other: saturating excess of GPP (∼500-fold over enzyme, 10-fold over IPP), steady-state equation accounting for product inhibition, Kp 6 μM, 30 °C, pH 7.5

B1: human FPPS (Homo sapiens) (protein)
chain: MNGDQNSDVYAQEKQDFVQHFSQIVRVLTEDEMGHPEIGDAIARLKEVLEYNAIGGKYNRGLTVVVAFRELVEPRKQDADSLQRAWTVGWCVELLQAFFLVADDIMDSSLTRRGQICWYQKPGVGLDAINDANLLEACIYRLLKLYCREQPYYLNLIELFLQSSYQTEIGQTLDLLTAPQGNVDLVRFTEKRYKSIVKYKTAFYSFYLPIAAAMYMAGIDGEKEHANAKKILLEMGEFFQIQDDYLDLFGDPSVTGKIGTDIQDNKCSWLVVQCLQRATPEQYQILKENYGQKEAEKVARVKALYEELDLPAVFLQYEEDSYSHIMALIEQYAAPLPPAVFLGLARKIYKRRK
- Km: 1.1 µM
